# Laboratory results: the supplement of paper PMC10567573
# B1: PKD2L1 (parent)
# chain: VFIFYYVVEEILELHIHRLRYLSS
# Variants of: B1
# Assay: protein stability index of a GFP-peptide fusion (GPS, HEK-293T) (PSI 1-6); higher = more stable
# Details: c terminus: a fixed tail appended
# 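Note: lentivirally expressed fusions sorted by FACS into six bins by GFP to DsRed ratio, PSI derived from sequencing read proportions per bin multiplied by bin number.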
row,Variant,protein stability index
1,VFIFYYYVEEILELHIHRLRYLSS [V7Y],1.75
2,VYIFYYVVEEILELHIHRLRYLSS [F2Y],3.06
3,VFIFYTVVEEILELHIHRLRYLSS [Y6T],3.44
4,VEIFYYVVEEILELHIHRLRYLSS [F2E],1.5
5,VFIFYYVVEEILELHIHRMRYLSS [L19M],2.53
6,VFIFYYVVEEILELHIHELRYLSS [R18E],2.76
7,VFIFYYVVEEILELHIHRLRYPSS [L22P],4.59
8,VFIFYYVVEEILELHRHRLRYLSS [I16R],2.6
9,VFIFYYVVEEILELHIIRLRYLSS [H17I],2.97
10,VFIFYYVVIEILELHIHRLRYLSS [E9I],3.16
11,VFIFYYVVEEILELHIERLRYLSS [H17E],1.77
12,VFIFYYVVEEILELHIHRLGYLSS [R20G],2.12
13,VFIFYWVVEEILELHIHRLRYLSS [Y6W],3.85
14,VFIFYYVVEEELELHIHRLRYLSS [I11E],3.87
15,VFIFYYVVEEILELHGHRLRYLSS [I16G],3.3
16,VFIFYYVVEEILEVHIHRLRYLSS [L14V],3.38
17,VFIFYLVVEEILELHIHRLRYLSS [Y6L],3.99
18,VFIFYYIVEEILELHIHRLRYLSS [V7I],2.11
19,VFIFYYVVEEILELHIYRLRYLSS [H17Y],2.69
20,VFIFYYVVWEILELHIHRLRYLSS [E9W],4.55
21,VFIFYYVVREILELHIHRLRYLSS [E9R],4
22,VFIFYYVVEEITELHIHRLRYLSS [L12T],3.03
23,VFIFYYVVEEGLELHIHRLRYLSS [I11G],2.73
24,VFIFYYVVEEILWLHIHRLRYLSS [E13W],3.26

row,Variant,protein stability index
1,VFIFYYVVEEILELHFHRLRYLSS [I16F],3.25
2,VFAFYYVVEEILELHIHRLRYLSS [I3A],1.69
3,VFIFYYVVEEILELHIHRLRTLSS [Y21T],3.04
4,VFIFYYVVEEILELHSHRLRYLSS [I16S],3.37
5,VFIFYYVVPEILELHIHRLRYLSS [E9P],2.49
6,VFIFYYVVEEILELHIVRLRYLSS [H17V],4.2
7,VFIFNYVVEEILELHIHRLRYLSS [Y5N],2.63
8,VFIFYYSVEEILELHIHRLRYLSS [V7S],4.39
9,VFIFYYVVEEILELHIHRLQYLSS [R20Q],1.89
10,VFIFYYVVEEILELHIHRLRYNSS [L22N],1.32
11,VFIFYYVVEEILELHEHRLRYLSS [I16E],2.46
12,VFYFYYVVEEILELHIHRLRYLSS [I3Y],3.43
13,VFIFYYVVEEILEMHIHRLRYLSS [L14M],2.66
14,VFIFYYVVEEILELHIHRLRGLSS [Y21G],3.65
15,VFIFYFVVEEILELHIHRLRYLSS [Y6F],1.65
16,VFIFYYVVEEILELHIHRLRVLSS [Y21V],3.28
17,FFIFYYVVEEILELHIHRLRYLSS [V1F],1.49
18,VFIFYYVVEEILELWIHRLRYLSS [H15W],2.13
19,VFIFYYVVEEIDELHIHRLRYLSS [L12D],2.63
20,VFIFYYVDEEILELHIHRLRYLSS [V8D],1.41
21,VFIFYYVVEEHLELHIHRLRYLSS [I11H],1.24
22,VFIFYYVVEEILELHIHRLRYLSH [S24H],3.15
23,VFIFYYVVEEILHLHIHRLRYLSS [E13H],3.19
24,VFIFYYCVEEILELHIHRLRYLSS [V7C],3.58

row,Variant,protein stability index
1,VFIFYYVVEEILELMIHRLRYLSS [H15M],3.1
2,VFIFYYVVEEILETHIHRLRYLSS [L14T],4.48
3,VFIWYYVVEEILELHIHRLRYLSS [F4W],1.29
4,NFIFYYVVEEILELHIHRLRYLSS [V1N],2.89
5,VFIFYYVVEEILELHIHRLRYKSS [L22K],3.19
6,VFIFYYHVEEILELHIHRLRYLSS [V7H],3.16
7,VFIFEYVVEEILELHIHRLRYLSS [Y5E],2.14
8,VRIFYYVVEEILELHIHRLRYLSS [F2R],3.23
9,VKIFYYVVEEILELHIHRLRYLSS [F2K],2.56
10,VFIFYYVVEEILELHIHRNRYLSS [L19N],2.31
11,VFIHYYVVEEILELHIHRLRYLSS [F4H],2.09
12,VFIFYYVVSEILELHIHRLRYLSS [E9S],1.63
13,VFIFYYVVDEILELHIHRLRYLSS [E9D],3.91
14,VFIFYYVVEEIKELHIHRLRYLSS [L12K],2.59
15,KFIFYYVVEEILELHIHRLRYLSS [V1K],2.63
16,VFIFYYVVEEILELHIKRLRYLSS [H17K],2.13
17,VFIFYYVVEWILELHIHRLRYLSS [E10W],2.69
18,VFIFYYVVEEILELHIGRLRYLSS [H17G],4.03
19,VFIFYYVVEEILELHIHRLTYLSS [R20T],3.91
20,VGIFYYVVEEILELHIHRLRYLSS [F2G],3.34
21,VIIFYYVVEEILELHIHRLRYLSS [F2I],3.92
22,RFIFYYVVEEILELHIHRLRYLSS [V1R],2.23
23,GFIFYYVVEEILELHIHRLRYLSS [V1G],3
24,VFIAYYVVEEILELHIHRLRYLSS [F4A],4

row,Variant,protein stability index
1,VFIFYYVVEEILENHIHRLRYLSS [L14N],3.64
2,VFIIYYVVEEILELHIHRLRYLSS [F4I],1.48
3,VFIFYYVVEEICELHIHRLRYLSS [L12C],2.92
4,VFRFYYVVEEILELHIHRLRYLSS [I3R],3.57
5,VFNFYYVVEEILELHIHRLRYLSS [I3N],3.08
6,VFLFYYVVEEILELHIHRLRYLSS [I3L],2.25
7,VFIFYYVVECILELHIHRLRYLSS [E10C],1.36
8,VFIFYYVVEDILELHIHRLRYLSS [E10D],2.75
9,VFIFYHVVEEILELHIHRLRYLSS [Y6H],2.85
10,VFIFYYVVEEIIELHIHRLRYLSS [L12I],2.21
11,VFIFYYVVEEILEYHIHRLRYLSS [L14Y],2.14
12,VFIFYYVVEEILELHIDRLRYLSS [H17D],3
13,VNIFYYVVEEILELHIHRLRYLSS [F2N],3.7
14,VFIQYYVVEEILELHIHRLRYLSS [F4Q],2.99
15,VFIKYYVVEEILELHIHRLRYLSS [F4K],2.57
16,VFIFYYVFEEILELHIHRLRYLSS [V8F],3.06
17,VFIFYYVVEPILELHIHRLRYLSS [E10P],2.76
18,VFIFYYVVEEILELHWHRLRYLSS [I16W],3.5
19,VFINYYVVEEILELHIHRLRYLSS [F4N],2.21
20,VFIFYPVVEEILELHIHRLRYLSS [Y6P],1.54
21,VFTFYYVVEEILELHIHRLRYLSS [I3T],1.54
22,VFIFYYGVEEILELHIHRLRYLSS [V7G],2.25
